Measurements: patent US20240408194A1 (ARIZONA BOARD OF REGENTS ON BEHALF OF ARIZONA STATE …, published 2024)

Biological target: spike B1.17 (SARS-CoV-2)

B1: LCB1 protein (designed binder)
chain: DKEWILQKIYEIMRLLDELGHAEASMRVSDLIYEFMKKGDERLLEEAERLLEEVER
Question: With B1 as the binder, how does the Kd read?
Answer: The Kd was 0.27 nM.
